Test results reported in the nanobody polyreactivity screen of Harvey et al. (2022).

Experiment: yeast display, Sf9 membrane polyspecificity reagent, FACS + sequencing; frameworks hold sequencing errors
How it was run: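 Galactose induction of a Saccharomyces cerevisiae BJ5465 synthetic nanobody display library ran 36–48 hours. The cells were then stained for 1 hour at 4 °C with 10% biotinylated, detergent-solubilized Sf9 membrane reagent, pulled down on streptavidin microbeads and FACS-sorted into low and high (top ~1%) gates on expression and reagent-binding fluorescence. Labels for polyreactivity follow the gate of origin.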

Sequence	polyreactivity (PSR sort gate)
QVQLVESGGGLVQAGGSLRLSCPASGSIFRGYGMGWSRQAPGKERELVAAMSSSGGTYYADSVKGRFTISRDNAKKTVYLQMNSLKPEDTAVYYCNARVRTQQRWVDYWGQGTQVTVSS	high polyreactivity
QVQLVESGGGLVQAGGSLRLSCPASGSIIYTNDMGWYRQEPGKEREMVAAISYGGTTTYADSVKGRFTISRDNAKNTVYLQMNSLKPEDTAVYYCNADWLYYGYWGYGHIWYDFWGQGTQVTVSS	low polyreactivity
QVQLVESGGGLVQAGGSLRLSCPASGSTIPVNAMVWYRQAPGKERELVAAIRSSTGRTYYADSVKGRFTTSRDNAKNTVYLQMNSLKPEDTAVYYCAADYRYNRGITSNKDYDYWGQGTQVTVSS	low polyreactivity
QVQLVESGGGLVQAGGSLRLSCPATGFTFSVYVMAWYRLAPGKERELVAAISSGGDTTYADSVKGRFTISRDNAKNTVYLQMNSLKPEDTAVYYCAAYRVILYYLYDYWGQGTQVTVSS	low polyreactivity
QVQLVESGGGLVQAGGSLRLSCPAYGSIFEGHGMGWYRQAPGKEREMVAAITFRSGSTYYADSVKWRFTISRDNAKNTVYLQINSLKPDDTAVYYCAADEYYQVSAYDYWGQGTQVTVSS	low polyreactivity
QVQLVESGGGLVQAGGSLRLSCPAYGSIFIGNAMGWYRQAPGKERELVAVISKGGGRTYYADSVKGRFTISRDNAKNTVYLQMNSLKPEDTAVYYCNTRNPDSGDYWGQGTQVTVSS	high polyreactivity
QVQLVESGGGLVQAGGSLRLSCPDSGRIFFLYAMGWYRQAPGKERELVAAITKSGGSTYADSVKGRFTISRDNAKNTVFLQMNSLIPEDTAVYYCAADLFTDLYDSWGQGTQVTVSS	low polyreactivity
QVQLVESGGGLVQAGGSLRLSCSASGFIFSRYVMGWYRKAPGKEREFVAVISYRGGSTYYADSVKGRFTFSRDNAKNTVYLQMNSLKPEDTAVYYCNADTIPDGEDRYDYWGQGTQVTVSS	low polyreactivity
QVQLVESGGGLVQAGGSLRLSCSASGFTFNYNAMGWYRQAPGKERELVASITRSGGRTYYADSVKGRFTISRDNAKITVYLQMNSLKPEDTAVYYCAAEVWYSLSYRVYGGYDFWGQGTQVTVSS	high polyreactivity
QVQLVESGGGLVQAGGSLRLSCSASGIIFVRNAMGWYRQAPGKERELVAAITWRGSTYYADSVKGRFTISRDNAKNTVYLQMNSLKPEDTAVYYCAAVKPHYTSFRDYYWGQGTQVTVSS	high polyreactivity
QVQLVESGGGLVQAGGSLRLSCSASGLIFGNYAMGWYRQAPGKERELVAAITSTGITYYADSVKGRFTISRDNAKNTVYLQMNSLKPEDTAVYYCAAASRFHPDRGGYWGQGTQVTVSS	low polyreactivity
QVQLVESGGGLVQAGGSLRLSCSASGLIFGNYGMGWYRQAPGKERELVAVITDDDSTTYADSVKGRFTISRDNAKNTFYLQMNSLKPEDTAVYYCNADNLLGRFDSWGQGTLVTVSS	low polyreactivity
QVQLVESGGGLVQAGGSLRLSCSASGLIFSTYAMGWYRQAPGKVRELVAAISGTGSTYYADSVKGRFTISRDNAKNTVYLQMNRLKPEDTSVYYCAAGATLWLLGLKMGYWGQGTQVTVSS	low polyreactivity
QVQLVESGGGLVQAGGSLRLSCSASGLIYYYYTMGWYRPPPGKERELVAVISSSGGSTYYADSVKGRFTISRDNAKNTVYLQMNSLKPEDTAVYYCAAVYHFQYGAYDYWGQGTQGTVSS	high polyreactivity
QVQLVESGGGLVQAGGSLRLSCSASGLTFTKYAMGWYRQAPGKEREFVATITSGGSTNYADSVKGRFTISRDNAKNTVYLQMNSLKPEDTAVYYCNRDNYKWPYWEFDYWGQGTQVTVSS	high polyreactivity
QVQLVESGGGLVQAGGSLRLSCSASGRIFPRNAMGWYRQAPGKERHLVAAISQSGTSTYYADSVKGRFTISRDNAQKTVYLQMNSLKREDTAVYYCAASGWDHVIVEYDYWGEGTQVTVSS	low polyreactivity
QVQLVESGGGLVQAGGSLRLSCSASGRIFPWNTMGWYRQAPGKERELVAGITSGGSTNYADSVKGRFTISRDNAKNTVYLQMNSLKPEDTAVYYCAARGYYWYISGVYEYEYWGQGTQVTVSS	low polyreactivity
QVQLVESGGGLVQAGGSLRLSCSASGRTFDGYAMVWYRQAPGKEREMVASITRGGGSTYYADSVKGRFTISRDNAKNTVYLQMNSLKPEDTAVYYCATSDRQVKYDYWGQGTQVTVSS	low polyreactivity
QVQLVESGGGLVQAGGSLRLSCSASGRTFLYDMGWYTHATGKELELVAAISRGGSTSYADSVKGRFTISRDNAKNTVYLQMNSLKPEDTAVYYCATRGLVGYYSYYYWGQGTQVTVSS	high polyreactivity
QVQLVESGGGLVQAGGSLRLSCSASGRTFSKYAMAWYRQAPGKERELVAAISKRGGSTSYADSVKGRFTISRDNAKNTVYLQMNSLKREDTAVYYCAATYTYVVPEYDYWGHGTQVTVSS	high polyreactivity
QVQLVESGGGLVQAGGSLRLSCSASGRTFSWYAMGWYRQAPGKERELVAAISWSGGSTYYADSVKGRFTISRDNAKNTVYLQMNSLKPEDTAVYYCNAVGRPLRGYDYWGQGTQVTVSS	high polyreactivity
QVQLVESGGGLVQAGGSLRLSCSASGRTFTPYAMGWYRQAPGKEREFVAAISIVGRTKYADSVKGRFTISPDNAKNTFYFQMNSLKPEDTAVYYCNAQDSRDRKFYWGYTRGHWGQGTQVTVSS	low polyreactivity

Sequence	polyreactivity (PSR sort gate)
QVQLVESGGGLVQAGGSLRLSCSASGRTFYGNAMGWYRQAPGKERELVAAISWSGGSTYYADSVKGRFPISRDNAKNTVYLQMISLKPEYTAVYYCNADYFAWDLMYYWGQGTQVTVSS	low polyreactivity
QVQLVESGGGLVQAGGSLRLSCSASGRTSDYYAMGWYRQAPGKERELVAAITSGGSTYYADSVKGRFTISRDNAKITVYFQMNSLKPEDTAVYYCAATWYWGWVFSYTSFDYWGLGTQVTVSS	low polyreactivity
QVQLVESGGGLVQAGGSLRLSCSASGSIFAIYTMGWYRQAPGTERELVAAISSRGDSTYYADSVKGRFTISRDNAKNTVYLQMNSLKPEDTAVYYCATRGDGVLGRRGYYWGQGTQVTVSS	high polyreactivity
QVQLVESGGGLVQAGGSLRLSCSASGSIFASNTMGWYRQAPGKERELVAGITKIGSSTYYADSVKGRFTISRDNAKNTFYLQMKSLKPEDTAVSYCKAYGPNIYSSRYDYWVQGTQVTVSS	low polyreactivity
QVQLVESGGGLVQAGGSLRLSCSASGSIFAWYGRGWYRQSPGKESELVAAITSTGSTYYADSVKGRFTISRDNAKNTVYLQMTSLKPEDTAVYYCNAYYVYLWRPGVYWGQGTQVTVSS	low polyreactivity
QVQLVESGGGLVQAGGSLRLSCSASGSIFSYYTMGWYRQAPGKERELVAAITGSGGRTYYADSVKGRFTISRDNAKNTVYLQMNSLKPEDTAVYYCNADRHYVPYYSRPRYIPYDYWGQGTQVTVSS	high polyreactivity
QVQLVESGGGLVQAGGSLRLSCSASGSILVRYAMGWYRQSPGKERELVAAITSGGSTYADSVKGRFTISRDNAKNTVYLQMNSLKPEDTAVYYCARDYFNREAFDYWGQGTQVTVSS	low polyreactivity
QVQLVESGGGLVQAGGSLRLSCSASGSTFEKNAMGWYRQAPGKERELVAAISNGVSTYYADSVKGRFTNSRDNAKNTVYLKINSLKPEDTAVYYCAAVLFFGAETVYYDKFDYWGQGTQVTVSS	low polyreactivity
QVQLVESGGGLVQAGGSLRLSCSASGSTFESNAMGWYRQAPGKERELVASISGSGGSTFYADSVKGRFTISRDNAKNTVYLQMNSLKPEDTAVYYCAAYKEPYYEEYGYWGQGTQVTVSS	low polyreactivity
QVQLVESGGGLVQAGGSLRLSCSASGSTFFSYAMGWYRQAPGKERELVATITSGGSTFADSVKWRFTISRDNAKNTVYLQMNSLKPEDTAVYYCNTDVVDCLFYHCECRFNYLGQGTQVTVSS	low polyreactivity
QVQLVESGGGLVQAGGSLRLSCSASGSTFGYYAMGWYRQAPGKERELVAAITRSGGSTFYADSVKGRFTISRDNAKNTVYLQMNSLKPEDTAVYYCAATYWPYRPGYYYWGQGTQVTVSS	high polyreactivity
QVQLVESGGGLVQAGGSLRLSCSASGSTFSAYVMGWYRQAPGKERKLVAAITRSGVSTYYADSVKGRFTISRDNAKNTVYLQMNSLKPEDTAVYYCNKRVGFLYKYDYWGQGTQVTVSS	high polyreactivity
QVQLVESGGGLVQAGGSLRLSCSASGSTFTAYAMGWSRQAPGKERELVATISDSGGSTYYADSVKGRFTISRDNAKNTVYLQMNSLKPEDTAVYYCAADVYSYFYQVVYTFDYWGQCTQVTVSS	low polyreactivity
QVQLVESGGGLVQAGGSLRLSCSASGSTFTWYAMGWYRQATGKERELVADISNGGGSTYYADSVKGRFTISRDNEKNTVYLQINSLKPEDTEVYYCAAESIPYYRYDYWGQGTQVTVSS	low polyreactivity
QVQLVESGGGLVQAGGSLRLSCSASGYISHYAMGWYRQAPGKERELVAAISRRGGSTYYADSVKGRFTISRDNAKNTVYLQMNSLKPEDTAVYYCNKATSYFTVRGYDYCGQGTQVTVSS	high polyreactivity
QVQLVESGGGLVQAGGSLRLSCSASGYTFPLYAMGWYRQAPGKERELVADINIGGASTYYADSVKGRFTISRDNAKNTVYLQMNSLKPEDTAVYYCAIQYYDGYFPTFEYDYWGQGTQVTVSS	low polyreactivity
QVQLVESGGGLVQAGGSLRLSCSASGYTFYLYTMGWYRQAPGTERELVAAISGSGTSTYYADSVKGRFTISRDNAKNTVYLQMNSLKPEDTAVYYCAAEDYSRDVYSYYYWGQGTQVTVSS	low polyreactivity
QVQLVESGGGLVQAGGSLRLSCSASVRTFYRNSMGWYRQAPGKEREFVAVISVSGGSTYYADSVKGRFTISRDNAKNTVYLQMNSLKPEDTAVYYCAADEYYTFSSFELRRMDYWGQGTQVTVSS	low polyreactivity
QVQLVESGGGLVQAGGSLRLSCSATGLTFRPYAMGWYRQAPGTERELVAGITRGGSTKYADSVKGRFTISRDNAKNTVYLLMISLKPEDTAVYYCAVERGSYSYDRPFYYWGQGTQVTVSS	high polyreactivity
QVQLVESGGGLVQAGGSLRLSCSATGSTFTINSMGWYRQAPGKERELVAATSKRGTNTYYADSVKGRFTISRDNAKNTVYLQMNSMKTEDSAVYYCKAPGHRQNGLGDYWGQGTQVTVSS	high polyreactivity
QVQLVESGGGLVQAGGSLRLSCSAYGSILWYNAMGWYRQAPGKERELVAAINRGGSTNYADSVKGRFTISRDNAKNTVYLQMNSLKPEDTAVYYCAADRLLVSAGGVQFDYWGQGTQVTVSS	low polyreactivity
